Measurements: patent publication US20250144141A1 (CDR LIFE, published 2025)

Experiments:
[1] = target: T1, HLA-A*02:01/MAGE-A4 complex (human, UniProt P04439 25-299 at identity 0.94); P61769 21-119); experiment: not stated in the sentence (SPR is described in Example 7)
T1 construct: Coated on ELISA plates and on a streptavidin SPR chip; a biotin tag is not described; also called HLA-A2/MAGE-A4 complex; pMHC-MAGE-A4

[2] = target: CD3 heterodimer (Acro Biosystems) (UniProt P07766 23-126); experiment: not stated in the sentence (SPR on a CD3 heterodimer chip is described in Example 7)
CD3 heterodimer (Acro Biosystems), sequence (P07766 23-126, one chain of several): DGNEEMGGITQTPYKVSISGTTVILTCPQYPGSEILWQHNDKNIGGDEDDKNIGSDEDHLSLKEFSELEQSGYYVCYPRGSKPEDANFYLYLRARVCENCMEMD

Kd [1]: 0.25 nM
Kd [2]: 10 nM
B1: M1048 (bispecific antibody)
chain 1: EVQLVESGGGLVQPGGSLRLSCAASGFTFSTYAMNWVRQAPGKGLEWVGRIRSKYNNYATYYADSVKGRFTISRDDSKNTLYLQMNSLRAEDTAVYYCVRHGNFGDSYVSWFAYWGQGTLVTVSSASTKGPSVFPLAPSSKSTSGGTAALGCLVKDYFPEPVTVSWNSGALTSGVHTFPAVLQSSGLYSLSSVVTVPSSSLGTQTYICNVNHKPSNTKVDKRVEPKSCGGGGSSYELTQPPSVSVSPGQTASITCTADTLSRSYASWYQQKPGQSPVLVIYRDTSRPSGIPERFSGSNSGNTATLTISGTQAMDEADYYCATRPSSGSNFQLFGGGTKLTVLGGGGGGSGGGGSGGGGSGGGGSESQVLESGGGSVQPGGSLRLSCTVSGFSLSNYAMSWVRQAPGKGLEYIGIVSSGGTTYYASWAKGRFTISKDTSKNTVYLQMNSLRAEDTASYYCAKDLYYGPTTYSAFNLWGQGTSVTVSS
chain 2: QAVVTQEPSLTVSPGGTVTLTCGSSTGAVTTSNYANWVQQKPGKSPRGLIGGTNKRAPGVPARFSGSLLGGKAALTISGAQPEDEADYYCALWYSNHWVFGGGTKLTVLGQPKAAPSVTLFPPSSEELQANKATLVCLISDFYPGAVTVAWKADSSPVKAGVETTTPSKQSNNKYAASSYLSLTPEQWKSHRSYSCQVTHEGSTVEKTVAPTECSGGGGSSYELTQPPSVSVSPGQTASITCTADTLSRSYASWYQQKPGQSPVLVIYRDTSRPSGIPERFSGSNSGNTATLTISGTQAMDEADYYCATRPSSGSNFQLFGGGTKLTVLGGGGGGSGGGGSGGGGSGGGGSESQVLESGGGSVQPGGSLRLSCTVSGFSLSNYAMSWVRQAPGKGLEYIGIVSSGGTTYYASWAKGRFTISKDTSKNTVYLQMNSLRAEDTASYYCAKDLYYGPTTYSAFNLWGQGTSVTVSS
